# In US20230303623A1, “PEPTIDES AND METHODS OF USE” (REALTA LIFE SCIENCES, INC., priority 2020, published 2023):
# “Also recorded” adds a separate entry of the source. Bridges are numbered along the chain shown (N, C = ends). Where no end group is shown, it is not given here. [ ]: non-standard residue; d: D form. S5 = C=CCCC[C@](C)(N)C(=O)O; Sar = CNCC(=O)O
# What was measured:
# [1] = without PEGylation; as described in U.S. Pat. No. 10,005,818; cited from earlier work
# PD-1 binding to PD-L1 = molecular target: T1, PD-1 binding to PD-L1 (Homo sapiens, UniProt Q9NZQ7); experiment: PD-1:PD-L1 inhibitor screening ELISA; settings: FIG. 8
# T1 construct: purchased
# Protocol: PIC1 peptides were allowed to bind to immobilized PD-L1 on the surface of the plate. Biotinylated PD-1 was then added and bound PD-1 detected by streptavidin-HRP reagent followed by TMB as the substrate for the colorimetric assay.
# This inhibitor screening ELISA pair was designed to facilitate the identification and characterization of new PD-1 pathway inhibitors. In this assay, biotinylated human PD-1 was bound to immobilized human PD-L1 and a colorimetric sandwich ELISA platform was used. Plates were coated with human PD-L1 followed by incubation with various PIC1 peptides. Human PD-1-Biotin was then allowed to bind the coated human PD-L1 followed by addition of streptavidin-HRP. TMB was then added as the colorimetric HRP substrate and the wells of the plate analyzed in a plate reader at an absorbance of 450 nm.
# The immune checkpoint pathway is an area of significant interest in cancer research. PD-1 is one of the best characterized checkpoint proteins. The binding between PD-1 and its ligand PD-L1 suppresses T-cell activation and allows cancer cells to escape from body's immune surveillance. Therefore, the pharmaceutical inhibition of PD-1 or its ligand has been considered a promising strategy by many cancer researchers. To ascertain if these PIC1 derivatives could inhibit PD-1 interaction with PD-L1, a commercial ELISA kit was utilized. […]
# VEGF = molecular target: T2, VEGF (Homo sapiens, UniProt P15692); experiment: VEGF Bioassay (Promega), VEGF signaling via VEGFR-2 (KDR); format: cell-based
# T2 construct: Promega (bioassay)
# T2 sequence (P15692 27-191 isoform P15692-4): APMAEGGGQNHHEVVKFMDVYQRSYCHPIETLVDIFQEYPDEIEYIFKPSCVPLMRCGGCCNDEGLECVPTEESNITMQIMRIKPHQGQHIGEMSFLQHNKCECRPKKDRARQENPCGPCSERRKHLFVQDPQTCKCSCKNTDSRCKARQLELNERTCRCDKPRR
# Source text: Luminescence was detected in luminometer plate reader.
# Angiogenesis, or the formation of new blood vessels from the established vasculature, is an essential element in tumor growth and metastasis formation. Inhibiting tumor angiogenesis is considered a major therapeutic strategy in oncology. […] The bioluminescent signal is detected in a luminometer.
# [2] = test system: purified human Pan T-cells; experiment: T-cell exhaustion protocol (repeated CD3/CD28 Dynabead stimulation); format: cell-based; settings: ELISA, listed as RLS-0154
# Protocol: Purified human pan-T-cells were subject to stimulation with Dynabeads every 48 hours over the period of 8 days with cells also receiving PIC1 peptides (2 mg/ml) at each stimulation. Cells not receiving Dynabeads were run in parallel to assess background levels of Caspase 3/7 signal. At the eighth day, cells were harvested, and the levels of Caspase 3/7 determined by ELISA.
# Purified human pan-T-cells were subject to stimulation with Dynabeads every 48 hours over the period of 8 days with cells also receiving PIC1 peptides (2 mg/ml) at each stimulation. Cell supernatants were collected at each stimulation and levels of IL-2 and IFN-gamma assayed by ELISA.
# T-cell exhaustion is a form of T-cell dysfunction that occurs in cancer. It is generally defined by poor effector function, reduction in cytokine release (e.g., IL-2, TNF-alpha, IFN-gamma), sustained expression of inhibitory receptors (e.g., PD-1, LAG-3, CD244, CD160) with the progressive loss of effector function due to overstimulation. Exhaustion can prevent optimal control of tumor growth. Exhausted T cells are prevalent in the tumor microenvironment (TME) and can lead to T-cell apoptosis. T-cell exhaustion is reversible and pharmaceutical inhibition of T-cell exhaustion has been considered a promising strategy by many cancer researchers. To ascertain if PIC1 peptides could reverse T-cell exhaustion and increase T cell viability and effector function, a T-cell exhaustion protocol was developed. To induce T-cell exhaustion, purified human Pan T-cells were stimulated with T-Activator CD3/CD28 Dynabeads and cells were washed and re-stimulated every 48 hours. PIC1 peptides were added to the cells after each stimulation with Dynabeads. After three to four stimulations, cells were harvested for readouts which consisted of assessing T-cell apoptosis by measuring Caspase 3/7 levels and production of cytokines IL-2 and IFN-gamma, which are indicative of T-cell functionality. […] To further evaluate if PIC1 peptides could restore T-cell functionality in cells that have undergone the exhaustion protocol, the inventors next assessed production of cytokines IL-2 and IFN-gamma. Supernatants from the cells after each stimulation was collected and the cytokines measured by ELISA. […] The lower level of IFN-gamma signal was consistently seen in this assay.
# CTLA-4 = molecular target: T3, CTLA-4 (Homo sapiens, UniProt P16410); experiment: CTLA-4 Blockade Bioassay (Promega); format: cell-based; design: host or cells: Jurkat T cells (CTLA-4 effector cells) co-cultured with aAPC/Raji cells; settings: increasing concentrations; listed as RLS-0154
# T3 sequence (P16410 36-223): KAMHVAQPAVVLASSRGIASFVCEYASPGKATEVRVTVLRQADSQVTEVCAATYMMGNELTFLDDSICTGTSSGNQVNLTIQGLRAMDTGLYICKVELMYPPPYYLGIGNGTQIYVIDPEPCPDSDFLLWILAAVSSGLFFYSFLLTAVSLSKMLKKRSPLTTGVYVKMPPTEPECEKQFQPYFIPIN
# Protocol: CTLA-4 effector cells were incubated with aAPC/Raji Cells in the absence or presence of increasing concentrations of anti-CTLA-4 antibody (positive control), RLS-0122, RLS-0150, RLS-0154, RLS-0164 and RLS-0168 and RLS-0088 (negative control). Luminescence was detected in luminometer plate reader. The drop-off in signal with the test peptides at high concentrations is due to cell death as a result of peptide buffer effects on the cells.
# To assess if PIC1 peptides could block CTLA-4 inhibitory activity in a cell-based assay, select peptides were screened in the CTLA-4 Blockade Bioassay (Promega). This bioluminescent cell-based assay can be used to measure the potency and stability of molecules targeting CTLA-4 and consists of two genetically engineered cell lines: CTLA-4 effector cells: Jurkat T cells expressing human CTLA-4 and a luciferase reporter driven by a native promoter which responds to TCR/CD28 activation and aAPC/Raji Cells: Raji cells expressing an engineered cell surface protein designed to activate cognate TCRs in an antigen-independent manner and endogenously expressing CTLA-4 ligands CD80 and CD86. When the two cell types are co-cultured, CTLA-4 competes with CD28 for their shared ligands, CD80 and CD86 and thus inhibits CD28 pathway activation and promoter-mediated luminescence. Addition of a molecule that blocks the interaction of CTLA-4 with its ligands CD80 and CD86 results in promoter-mediated luminescence.
# MPO = molecular target: T4, MPO (Homo sapiens, UniProt P05164); experiment: MPO activity assay; format: biochemical; settings: compared to parent peptide
# T4 construct: purchased Lee BioSolutions (Maryland Heights, MO)
# Protocol: The MPO activity assay was performed as previously described. Briefly, peptides were diluted to 12 mg/ml and serially titrated in a 96 well plate at a volume of 0.02 ml. MPO was diluted to 20 μg/ml and 0.02 ml was added to the titrated peptides. TMB (3,30,5,50-tetramethylbenzidine) (0.1 ml) was added to each well for 2 minutes, followed by 0.1 ml of 2.5 N H2SO4 for another 2 minutes, and then read on a 96 well plate reader (BioTek) at 450 nm.
# To ascertain the inhibition of MPO activity by the various peptides, a range of concentrations of the stapled peptides and D-amino acid variants were tested (FIG. 3A-3B) and half-maximal activity levels were calculated from the dose-response curves (FIG. 6A-6C, respectively).
# [3] = test system: antibody-initiated complement activation (lysis of AB human red blood cells by type O serum); experiment: ABO incompatibility hemolytic complement assay (CH50-type); format: cell-based; settings: peptides 0.8 mg/ml (~0.5 mM); compared to parent peptide
# Protocol: FIG. 1A-1B show PIC1 peptides' inhibition of complement activation in an ABO incompatibility assay. […] Inhibition of ABO incompatibility hemolysis in a CH50-type assay. Peptides are at a final concentration of 0.5 mM. Values are represented as a percent of the positive control, which consists of human 0 sera and AB red blood cells in GVBS^++ buffer. Data are the means of n=3 independent experiments±SEM.
# For hemolytic complement assays, human red blood cells (RBCs) from type AB donors were purified, washed, and standardized to 1.0×10^9 cells/ml, as previously described. Human sera from type 0 donors at a 15% final concentration was combined with 0.5 mM of the peptides and the volume was brought up to 0.2 ml with GVBS^++ and 5.0×10^7 RBCs. The samples were incubated for 1 hour at 37° C. and then spun at 3,000 rpm for 5 minutes and the supernatant was collected and read at 412 nm. Values are represented as a percent of the positive control, which consists of human 0 sera and AB red blood cells in GVBS^++ buffer.
# To assess the extent to which the peptide variants inhibit antibody-initiated complement activation, an ABO incompatibility ex vivo assay was utilized in which purified erythrocytes from a ‘type AB+’ donor are incubated with sera from a ‘type 0’ subject containing anti-A and anti-B antibodies. Peptides were tested at a concentration of 0.8 mg/ml (˜0.5 mM).
# [4] = Total Antioxidant Capacity (TAC) assay; settings: highest peptide concentration 1.5 mM; compared to parent peptide
# Protocol: As previously reported, the TAC (Total Antioxidant Capacity) Assay (Cell Biolabs, Inc, San Diego, CA) was used to measure the antioxidant capacity of the PIC1 variants based on the reduction of copper (II) to copper (I). The kit protocol was performed per the manufacturer's recommendations.
# The antioxidant properties for the PIC1 variants were evaluated in a Total Antioxidant Capacity (TAC) assay, as previously reported. Total antioxidant activity over a range of peptide concentrations were determined for the stapled and the D-amino acid peptides based on the PA-I8Sar and PA-C9Sar backbones (FIG. 4A-4B), with the activity of the highest peptide concentration reported (1.5 mM) (FIG. 5A-5C).
# C1q = molecular target: T5, C1q (Homo sapiens, UniProt P02745+P02746+P02747); experiment: C1q binding ELISA-type assay; settings: compared to parent peptide
# T5 construct: purchased Complement Technology (Tyler, TX)
# Protocol: The C1q binding assay was performed as previously described. Briefly, an Immunlon-2 HB ELISA plate was coated with 1 μg/ml C1q in bicarbonate buffer overnight at 4° C. The plates were washed with PBS-T (phosphate buffered saline+0.1% Tween) and then blocked with 1% gelatin/PBS for 2 hours at room temperature. After washing, the plates were incubated with the peptides starting at 2.5 mg/ml and then serially diluted in 1% gelatin/PBS for 1 hour at room temperature followed by washing. Plates were then probed with rabbit antibody raised against the lead peptide […] (SEQ ID NO: 2) that lacked PEGylation at 1:1000 in 1% gelatin/PBS for 1 hour at room temperature followed by a goat anti-rabbit HRP (Sigma Aldrich, St Louis, MO) at 1:1,000 in 1% gelatin/PBS for 1 hour at room temperature with a washing step in between. After addition of TMB substrate solution to the wells, the reaction was stopped using 1N H2SO4, and the plate read on a BioTek Synergy HT plate reader at 450 nm.
# The astrovirus capsid protein and the PIC1 molecules derived from it inhibit classical complement pathway activation by binding to the pattern recognition molecule C1q. The inventors next tested peptide variant binding to C1q in an ELISA-type assay in which C1q is used as the capture substrate and bound peptide detected with a rabbit polyclonal antibody against the peptide portion of PA-dPEG24 ([…]-d24; SEQ ID NO: 3). Binding curves were derived for the stapled and D-amino acid peptides based on the PA-I8Sar and PA-C9Sar (FIG. 5A-5C) backbone, from which half-maximal binding concentrations were calculated (FIGS. 2A and B, respectively). […] For the peptides based on the PA-C9Sar backbone, C1q was bound to a greater degree than the parent peptide (FIG. 2B).
# [5] = peptides 2 mg/ml, stimulation 2
# T4 sequence (P05164 279-745 limits assumed): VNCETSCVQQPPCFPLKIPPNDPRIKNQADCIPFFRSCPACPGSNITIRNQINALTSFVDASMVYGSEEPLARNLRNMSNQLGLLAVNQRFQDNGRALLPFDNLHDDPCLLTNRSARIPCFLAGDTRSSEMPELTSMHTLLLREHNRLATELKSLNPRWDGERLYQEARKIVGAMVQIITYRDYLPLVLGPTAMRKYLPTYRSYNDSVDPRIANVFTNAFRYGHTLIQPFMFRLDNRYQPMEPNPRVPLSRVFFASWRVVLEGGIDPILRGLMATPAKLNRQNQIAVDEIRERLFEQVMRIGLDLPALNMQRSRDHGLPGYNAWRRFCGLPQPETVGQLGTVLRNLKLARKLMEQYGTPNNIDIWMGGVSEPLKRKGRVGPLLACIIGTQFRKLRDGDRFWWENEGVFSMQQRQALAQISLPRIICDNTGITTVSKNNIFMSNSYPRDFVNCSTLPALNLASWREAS
# T4 sequence (P05164 165-273 limits assumed): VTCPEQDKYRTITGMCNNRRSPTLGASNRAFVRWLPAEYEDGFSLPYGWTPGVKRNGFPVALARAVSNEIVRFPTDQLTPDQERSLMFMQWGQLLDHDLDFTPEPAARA
# T5 sequence (P02745 23-245): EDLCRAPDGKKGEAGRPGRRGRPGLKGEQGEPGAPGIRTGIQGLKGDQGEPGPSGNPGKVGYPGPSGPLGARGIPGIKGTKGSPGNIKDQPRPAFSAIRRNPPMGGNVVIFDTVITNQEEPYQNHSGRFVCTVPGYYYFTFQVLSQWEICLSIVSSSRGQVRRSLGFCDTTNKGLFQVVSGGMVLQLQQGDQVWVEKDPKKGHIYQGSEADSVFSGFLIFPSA
# T5 sequence (P02746 28-253): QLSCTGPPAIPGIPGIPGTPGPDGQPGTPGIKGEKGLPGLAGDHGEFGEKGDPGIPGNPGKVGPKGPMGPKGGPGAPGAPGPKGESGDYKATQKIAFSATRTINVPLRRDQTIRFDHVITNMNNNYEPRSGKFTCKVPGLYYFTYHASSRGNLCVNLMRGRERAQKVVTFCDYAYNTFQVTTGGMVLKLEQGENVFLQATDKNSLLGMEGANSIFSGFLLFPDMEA
# T5 sequence (P02747 29-245): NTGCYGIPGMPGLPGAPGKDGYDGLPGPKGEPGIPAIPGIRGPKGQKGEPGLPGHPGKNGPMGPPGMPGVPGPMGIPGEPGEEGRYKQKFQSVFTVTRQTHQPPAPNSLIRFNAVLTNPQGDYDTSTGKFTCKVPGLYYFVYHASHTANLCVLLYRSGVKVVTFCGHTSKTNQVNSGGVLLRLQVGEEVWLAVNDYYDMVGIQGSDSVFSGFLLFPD
# T1 sequence (Q9NZQ7 19-238 limits assumed): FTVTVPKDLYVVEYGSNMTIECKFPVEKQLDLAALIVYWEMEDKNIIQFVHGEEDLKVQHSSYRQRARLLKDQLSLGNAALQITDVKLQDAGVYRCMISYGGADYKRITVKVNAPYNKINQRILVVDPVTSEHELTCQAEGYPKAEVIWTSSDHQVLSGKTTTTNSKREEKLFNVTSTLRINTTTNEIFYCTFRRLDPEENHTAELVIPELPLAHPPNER
substance,measurement,setting,value
"IALILEPI(Sar)CQERAA (IALILEPIXCQERAA; sarcosine at position 9; MOD_RES (9)..(9) Sarcosine) [PA-0089, parent peptide, sarcosine at position 9 of PIC1]",solubility in water,[1],water soluble without PEGylation
"IALILEPICCQERAA-PEG24 (C-terminal PEG24) [PA-0071, PIC1 peptide with C-terminal monodisperse 24-mer PEGylated moiety]","inhibition of binding of PD-1 to PD-L1, in words",PD-1 binding to PD-L1,did not inhibit
IALILES5I(Sar)CS5ERAA (IALILE[S5]I[Sar]C[S5]ERAA; staple 7-11; not fully specified; printed as IALILES5I(Sar)CS5ERAA) [PA-0154],"inhibition of VEGF signaling via VEGFR-2 (luminescence), in words",VEGF,dose-dependently reduced luminescence
same,"Caspase 3/7 levels, in words","[2]; peptides 2 mg/ml at each stimulation, day 8",increase in Caspase 3/7 levels; also recorded: did not display reduction of Caspase levels
same,"IFN-gamma levels in cell supernatants, in words",[2]; [5],not and increased levels
same,"IL-2 levels in cell supernatants, in words",[2]; [5],detectable IL-2 at stimulation 2; also recorded: increased levels
same,"inhibition of CTLA-4 mediated cell signaling (increase in luminescence), in words",CTLA-4,showed inhibitory activity; also recorded: able to inhibit CTLA-4 mediated cell signaling
same,"inhibition of MPO activity (half-maximal values), in words",MPO,decreased MPO inhibition
IAdLILEP(Sar)CS5QERS5A (H-IA[dL]ILEP[Sar]C[S5]QER[S5]A-OH; staple 10-14; not fully specified) [PA-0142],"inhibition of ABO incompatible hemolysis (complement inhibition), in words",[3],similar
same,"total antioxidant capacity, in words",[4],decreased activity compared to the parent peptide
same,"binding to C1q (binding curves, half-maximal binding), in words",C1q,did not bind C1q
IS5LILS5PI(Sar)CQERAA (I[S5]LIL[S5]PI[Sar]CQERAA; staple 2-6; not fully specified; printed as IS5LILS5PI(Sar)CQERAA) [PA-0152],"binding to C1q (binding curves, half-maximal binding), in words",C1q,did not titrate
same,"inhibition of MPO activity (half-maximal values), in words",MPO,decreased MPO inhibition
